From paper PMC8971729 (Molecular Therapy Oncolytics, 2022) come the findings set out here.

The target in this assay is T1, human CXADR Fc chimera protein (CAR) (human, UniProt P78310).
T1 construct: also called coxsackievirus and adenovirus receptor; source: bought: R&D Systems
T1 sequence: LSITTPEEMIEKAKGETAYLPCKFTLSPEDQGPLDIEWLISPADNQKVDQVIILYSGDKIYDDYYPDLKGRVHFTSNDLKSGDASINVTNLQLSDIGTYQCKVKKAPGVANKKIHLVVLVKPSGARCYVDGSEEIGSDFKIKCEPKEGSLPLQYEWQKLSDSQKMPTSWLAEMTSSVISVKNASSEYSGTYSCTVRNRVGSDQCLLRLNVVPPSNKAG
The assay is described as follows: SPR; BIAcore 3000; DSG2-Fc, CAR-Fc and CD46-His (approximately 500 RU) coupled to a CM5 chip; knob protein injected (178 uM, 5x 1:3 dilutions; single-cycle kinetics from 200 uM); 30 uL/min, PBS, 25 °C; equilibrium KD assuming 1:1 Langmuir binding. The following applies: both partners purified. Background: In SPR one partner is held on a chip, and binding of the other changes the refractive index at the surface.

B1: HAdV-C5 fiber knob protein (domain or fragment)
chain: KNNDKLTLWTTPAPSPNCRLNAEKDAKLTLVLTKCGSQILATVSVLAVKGSLAPISGTVQSAHLIIRFDENGVLLNNSFLDPEYWNFRNGDLTEGTAYTNAVGFMPNLSAYPKSHGKTAKSNIVSQVYLNGDKTKPVTLTITLNGTQETGDTTPSAYSMSFSWDWSGHNYINEIFATSSYTFSYIAQE
notes: source: supplemental methods
One may read the Kd as the constant that tells how readily two partners part at equilibrium. As to B1, the Kd was 0.76 nM.
